Results from paper PMC12749359, “Chromosome compartment assembly is essential for subtelomeric gene silencing in trypanosomes” (Nature Communications, 2025).

Tests used:
[1] = biological target: T1, repressor-activator protein 1, His-tagged recombinant (T. brucei, UniProt Q387L4 1-855); experiment: SPR
T1 chain: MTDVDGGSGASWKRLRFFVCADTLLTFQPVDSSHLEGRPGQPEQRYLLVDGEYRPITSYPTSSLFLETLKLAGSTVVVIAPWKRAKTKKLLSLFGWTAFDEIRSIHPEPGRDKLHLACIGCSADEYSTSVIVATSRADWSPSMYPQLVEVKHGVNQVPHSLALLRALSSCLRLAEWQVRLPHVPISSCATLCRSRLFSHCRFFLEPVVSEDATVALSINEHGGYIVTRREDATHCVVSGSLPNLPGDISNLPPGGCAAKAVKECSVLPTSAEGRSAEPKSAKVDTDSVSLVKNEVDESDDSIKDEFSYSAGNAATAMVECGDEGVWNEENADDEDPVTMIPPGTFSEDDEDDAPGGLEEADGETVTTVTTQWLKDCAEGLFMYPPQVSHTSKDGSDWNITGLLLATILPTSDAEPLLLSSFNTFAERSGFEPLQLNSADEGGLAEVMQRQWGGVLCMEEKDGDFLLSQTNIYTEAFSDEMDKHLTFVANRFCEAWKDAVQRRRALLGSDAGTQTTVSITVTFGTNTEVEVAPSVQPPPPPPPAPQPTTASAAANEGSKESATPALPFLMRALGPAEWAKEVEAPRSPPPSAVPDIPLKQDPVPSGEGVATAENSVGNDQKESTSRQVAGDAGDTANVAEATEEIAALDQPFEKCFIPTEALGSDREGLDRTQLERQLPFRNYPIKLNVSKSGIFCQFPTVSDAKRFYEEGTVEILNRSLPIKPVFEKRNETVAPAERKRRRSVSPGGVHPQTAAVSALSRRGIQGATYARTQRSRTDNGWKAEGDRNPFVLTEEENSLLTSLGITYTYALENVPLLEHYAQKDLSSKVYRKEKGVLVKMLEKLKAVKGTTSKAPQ

[2] = biological target: T2, repressor-activator protein 1, His-tagged recombinant (T. brucei, UniProt Q387L4 1-855); experiment: SPR; RAP1-His immobilised on NTA sensor (Nicoya OpenSPR-XT), blocked with 0.5% BSA; PIP5Pase-V5 added at 0.0008, 0.004, 0.008, 0.016 nM; 20 mM HEPES, 150 mM NaCl, 10 mM KCl, 10 mM MgCl2, 10 mM CaCl2, 0.2% NP-40; three replicates; details: both partners purified
T2 construct: RAP1 of Trypanosoma brucei, recombinant; also called RAP1-His; his-tagged RAP1; source: recombinantly produced in E. coli
T2 sequence (looked up): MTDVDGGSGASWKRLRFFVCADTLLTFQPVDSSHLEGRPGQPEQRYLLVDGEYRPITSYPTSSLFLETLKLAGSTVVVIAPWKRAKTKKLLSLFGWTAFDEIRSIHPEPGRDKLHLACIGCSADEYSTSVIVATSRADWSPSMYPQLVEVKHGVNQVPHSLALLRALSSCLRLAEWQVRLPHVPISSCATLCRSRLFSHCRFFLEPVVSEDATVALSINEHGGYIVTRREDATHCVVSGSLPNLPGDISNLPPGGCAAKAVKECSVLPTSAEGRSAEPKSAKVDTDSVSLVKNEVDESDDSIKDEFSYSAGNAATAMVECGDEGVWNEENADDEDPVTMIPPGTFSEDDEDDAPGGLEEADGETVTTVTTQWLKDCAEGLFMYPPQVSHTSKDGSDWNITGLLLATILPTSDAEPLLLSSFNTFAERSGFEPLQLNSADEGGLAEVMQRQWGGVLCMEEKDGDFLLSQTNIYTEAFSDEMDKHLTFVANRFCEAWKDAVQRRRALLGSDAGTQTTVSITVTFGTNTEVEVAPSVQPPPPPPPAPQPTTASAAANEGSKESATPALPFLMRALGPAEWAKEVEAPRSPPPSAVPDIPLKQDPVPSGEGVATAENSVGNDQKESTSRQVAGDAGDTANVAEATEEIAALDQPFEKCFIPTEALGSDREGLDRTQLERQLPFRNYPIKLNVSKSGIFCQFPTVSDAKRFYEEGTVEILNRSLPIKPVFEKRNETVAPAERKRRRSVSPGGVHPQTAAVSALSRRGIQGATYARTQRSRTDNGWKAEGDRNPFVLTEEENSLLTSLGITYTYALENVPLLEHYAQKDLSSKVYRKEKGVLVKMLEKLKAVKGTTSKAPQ

[3] = biological target: T1, repressor-activator protein 1, …; experiment: SPR

B1: phosphatidylinositol phosphate 5-phosphatase, V5-tagged (enzyme, T. brucei, UniProt Q385E2 1-564, looked up)
chain: MRSLLEGITSTLRSAQQHQTGWDPRNATSTGVPTTAQEAFSGGVPAVAQRDLSHVEGPVSSKGGAPMDCITGYSRFSTHSPPDFPFRMLMITQNVGAIGDTAAGAKEGGEEHRRECEKQAGNDELSSDAQKDVREFLSELRLLIFEYSRREYTAHIRVSNTGDDDPSHPSAADIGGQGPPPLIDVIVVHFQEIGGKSFHTEFNNYFANALQELLPEAGWTSGLLMRANDDEDQFTAVGSVVYLSHRMCPISSILSFHHRTFVCVGDDPVTYGSSPTILFHGGKFSGAGESRKGYLLISLRLGTVVVNFLNVHLYNDKKSKEAAAASPSPYALQRQEALLETLAECAAFISPDDPLFIFGDFNTRLDVHNMLQYLKEVENLDVKVSDGDVRAPDSFWELFENPQHMGVIRPYDVEVQRLLDVVAQQSGMELAEFAVRFPPTYLCQSPRDSEEATFQIDTPVHLVNDGEDKRESGTSDRISVVRVLERLSSIPHHPYGRRRVPAWCDRVLWNPPALELMTGRRTSQSVAGSSATAHGGTGVGALRRYVYRSVALRHTDHAAVTLFF
notes: PIP5Pase of Trypanosoma brucei, endogenous allele tagged at the C-terminus (pMOTag3V5) in Lister 427 single-marker cells; also called PIP5Pase; PIP5Pase-V5; source: T. brucei bloodstream forms, endogenously tagged allele, in lysate of DSS cross-linked cells (XLMS, IP); isolated from T. brucei (SPR); not shown: 3xV5 (42 amino acids), C-terminal, kept
B1 was tested, and the Kd [1] was 270 nM, the Kd [2] was 2.7 nM and the koff [3] was 0.41 s⁻¹.
